Assays:
[1] = system: neutrophils; assay: Anti-inflammatory potential of SAA on neutrophils (oxidative burst, migration, myeloperoxidase release, O2-release); format: cell-based
Procedure: The anti-inflammatory potential of SAA on neutrophils has been confirmed for SAA at reported serum concentrations. […] However, at higher concentrations of more than 50 μg/ml, SAA was stimulating. In addition, O2-release was inhibited up to 0.1 μg/ml, but the O2-release was increased above that. Thus, SAA plays a dual role, it down-regulates inflammatory processes in lower concentration but, during the full APR, the action of SAA can be promoting.

[2] = system: human neutrophils; assay: Binding of SAA to human neutrophils
Description: (§1) This was the first time that a function of SAA was blocked by a monoclonal AA antibody. The monoclonal antibody mc29 used probably also blocks the laminin-like domain (aa 29-33) and may also be participating partially with the RGD-like domain (aa 39-41). In addition, human neutrophils were exposed to full human APS at different temperatures. […] This indicated an irreversible structural change of SAA (or its fragments) during high fever, which is blocking SAA's return to the reversible binding to HDL. (This febrile temperature-that induced the aggregation of AA-antigenic proteins has also been noticed in vitro and documented in FIG. 2 at 38° C. and 40° C.). The possibly unfavorable consequences of these aggregates in humans or animals are unknown today.

[3] = Immunodiffusion of SAA-HDL containing acute phase serum with polyclonal anti-AA at different temperatures; format: physicochemical; settings: added to normal human serum
Procedure: Immunodiffusion (ID) at different temperatures. The ID was performed in 1.5% Seakem Agarose in 0.03 M barbital buffer, pH 8.6 with the same reagents in each of the three plates a 6 wells (A-C). Top and bottom well contained AA (0.1 mg/ml), the middle well contained polyclonal rabbit anti-AA antibodies undiluted and the 4 side wells contained elevated SAA-HDL containing APS from 4 patients at 1/10 diluted. Plate A after diffusion over night at room temperature, plate B at 4° C. over night and plate C first at 4° over night as plate B at 4° C. followed by room temperature for 6 hs similar to plate A.
In FIG. 1A, one recognizes a line of identity of AA with all four patients' sera as if the SAA (probably SAA1 and SAA2) reaction were done with pure SAA. At 4° C. in FIG. 1B, however, there is no reaction with SAA-HDL in serum. This is due to the hiding of the AA-reactive parts of SAA through HDL. […] Therefore, the separation of SAA from HDL is temperature-dependent.

[4] = system: human neutrophils; assay: FMLP-induced oxidative burst of normal human neutrophils; format: cell-based; settings: SAA at 0.1 μg/ml and 1.0 μg/ml
Description: as §1

[5] = SAA at reported serum concentrations

83-104: SAA peptide aa 83-104 (NEWGRSGKDPNHFRPAGLPEKY; UniProt P0DJI8 101-122, looked up, fragment)
contribution of SAA peptides to the inhibitory effect on neutrophils [1]: contributed to this inhibitory effect

aa 1-14: SAA peptide aa 1-14 (RSFFSFLGEAFDGA; UniProt P0DJI8 19-32, looked up, fragment)
contribution of SAA peptides to the inhibitory effect on neutrophils [1]: contributed to this inhibitory effect

B1: recombinant SAA2: recombinant serum amyloid A2 protein (SEQ ID NO: 2: human SAA2) (protein, UniProt P0DJI9 19-122, looked up)
Serum amyloid A-2 protein: RSFFSFLGEAFDGARDMWRAYSDMREANYIGSDKYFHARGNYDAAKRGPGGAWAAEVISNARENIQRLTGRGAEDSLADQAANKWGRSGRDPNHFRPAGLPEKY
binding with human neutrophils [2]: Strong binding
temperature-dependent immunodiffusion behavior as in FIG. 1 [3]: repeat exactly that behavior

B2: SAA: serum amyloid A protein, 12.5 kDa acute phase protein isolated from human serum (protein)
chain: RSFFSFLGEAFDGARDMWRAYSDMREANYIGSDKYFHARGNYDAAKRGPGGAWAAEVITDARENIQRFFGHGAEDS
FMLP-induced oxidative burst of normal human neutrophils [4]: reduced, concentration-dependently
binding with human neutrophils [2]: Strong binding
migration of neutrophils [1, 5]: inhibited
neutrophil myeloperoxidase release [1, 5]: inhibited
oxidative burst of neutrophils [1, 5]: inhibited
O2-release ([1]; above 0.1 μg/ml): increased
effect on neutrophils at higher concentrations ([1]; more than 50 μg/ml): stimulating
O2-release ([1]; up to 0.1 μg/ml): inhibited
